The data set is described as follows: protein stability index of a GFP-peptide fusion (GPS, HEK-293T) (PSI 1-6); higher = more stable.
[1] abbreviates: treatment: DMSO, c terminus: a fixed tail appended.
Setting [2] is: treatment: MLN4924 1 uM, 8 h, c terminus: a fixed tail appended.
Where [3] appears, read: treatment: DMSO, c terminus: native.
The mark [4] stands for this setting: treatment: MLN4924 1 uM, 8 h, c terminus: native.

± gives the standard deviation.

The values that follow come from the supplement of paper PMC10567573.
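Further: 24-mer peptide tiles fused after GFP, lentivirally expressed, FACS-sorted into six equal bins by GFP/DsRed ratio, decoded by Illumina sequencing, PSI is the read-weighted mean bin number.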

SPLAADPACLGQPHTPGKPTSSCT [FOXJ1]: the protein stability index amounted to 4.95 ± 0.17 under setting [1] and 4.89 ± 0.2 under setting [2].
In the same order, the values of SPYFHDQVLLKGMTSISLPSVMDP [ZBTB22] are 3.03 ± 0.3 and 3.12 ± 0.28.
In the same order, the values of SQYFRSLFSSHPPLGGGVGGQDGL [KLHL14] are 2.72 ± 0.17 and 2.87 ± 0.21.
For SRDGATGHVLLTDSEFSMQEPMVP [PPFIA4], the protein stability index stood at 4.6 ± 0.27 under setting [1] and 4.6 ± 0.29 under setting [2].
The matching figures for SREITTLANNQCMATESVDHELGR [EHMT1]: 4.8 ± 0.28 and 4.84 ± 0.26.
The matching figures for SRPVKGQVVTVHLQTSLENGTRVQ [FKBP8]: 3.38 ± 0.45 and 3.51 ± 0.26.
In the same order, the values of SRQIPAPQGAVLVQREKDLPNYNW [KISS1] are 3.78 ± 0.29 and 3.79 ± 0.14.
On to SRSESPPPLSDPKQAKVVARRESG [BRD3], for which the protein stability index was determined as 5.5 ± 0.21 under setting [1] and 5.24 ± 0.17 under setting [2].
Take SRSRSRSRSRSRSRSNSRSRSYSP [SRSF1]: the protein stability index runs as follows: under setting [1], 5.52 ± 0.33; under setting [2], 5.56 ± 0.28.
Take SRWVRDPRYREDPCKQCKKKYVKG [FBXO34]: the protein stability index runs as follows: under setting [1], 3.59 ± 0.44; under setting [2], 3.92 ± 0.14.
In the case of SSASYEKENEMMKSHVMDQAINNA [IKZF1], the protein stability index runs as follows: under setting [1], 4.78 ± 0.19; under setting [2], 4.74 ± 0.28.
In the same order, the values of SSCFFIESCGAQVPVEGSRRETSI are 3 ± 0.38 and 2.79 ± 0.033.
The matching figures for SSDSANTTIEDEDAKARKQEIIKT [CAMK2B]: 5.44 ± 0.21 and 5.42 ± 0.082.
In the same order, the values of SSGRELGRPKELQPKKLHLCPLCG [ZNF263] are 3.53 ± 0.2 and 3.99 ± 0.58.
Consider SSGRRVSLHCLLDQFDKDLPVYLK [DENND6A], for which the protein stability index by setting is: under setting [1], 2.35 ± 0.45; under setting [2], 2.4 ± 0.45.
Consider SSLSFFLKKMGKRLDYLNLKGARL [FBXO39], for which the protein stability index reads like this: under setting [1], 2.96 ± 0.66; under setting [2], 2.63 ± 0.43.
In the same order, the values of SSNRIRHLRTHTGERPYKCSECGE [ZNF263] are 4.28 ± 0.089 and 4.44 ± 0.24.
On to SSSHQKCPQLGGPEASGGLVQWI [PLEKHN1], for which the protein stability index was found to be 3.17 ± 0.38 under setting [3] and 3.47 ± 0.26 under setting [4].
Turning to SSSSKLSRSPLKIVKKPKSMQCKV [EPB41L3], the protein stability index reads like this: under setting [1], 3.54 ± 0.11; under setting [2], 3.41 ± 0.52.
As for SSSTMSKSEYMEIEEDMNNSIAHY [KCNA1], the protein stability index is, setting by setting: under setting [1], 4.56 ± 0.33; under setting [2], 4.5 ± 0.11.
In the same order, the values of STDNIVSQWDVLSGDCDQRFRFPS [RBBP5] are 3.64 ± 0.1 and 3.67 ± 0.16.
For the sequence STGEVYCRVPNSGKDEIEAAVKAA [ALDH8A1], the protein stability index was determined as 4.93 ± 0.4 under setting [1] and 4.94 ± 0.32 under setting [2].
On to STICFGQGAARGFKSNKKKTKQC [ZNF511], for which the protein stability index is 4.86 ± 0.14 under setting [3] and 4.71 ± 0.32 under setting [4].
For STLLPLAPSNSTSLNSTFGSTNLT [NFE2L1], the protein stability index runs as follows: under setting [1], 3.64 ± 0.19; under setting [2], 3.86 ± 0.16.
In the same order, the values of STSRAHKLPSRRQPGLLHLQSCGD [FAM189A2] are 3.67 ± 0.33 and 3.85 ± 0.13.
In the same order, the values of STTEGIQLAKELGATYLELHSLDD [RHOBTB3] are 3.77 ± 0.3 and 4.16 ± 0.37.
Consider STVKNEFSLKTFKRKSEVERAVKR [MATN2], for which the protein stability index worked out at 4.17 ± 0.14 under setting [1] and 4.39 ± 0.3 under setting [2].
In the same order, the values of SVDLIKTYKHINEVYYAKKKRRAQ [DYRK1B] are 2.85 ± 0.23 and 3.13 ± 0.14.
Consider SVILNHMAREHAFNIGLPDNIVNC [ZNF277], for which the protein stability index reads like this: under setting [1], 1.98 ± 0.2; under setting [2], 2.22 ± 0.45.
In the same order, the values of SVILRRYFLELTQSFIIPLERYVA [DENND6A] are 2.33 ± 0.63 and 2.88 ± 0.75.
In the same order, the values of SVVRDLKGYPDGVKSIVVKGYNIW [TLE6] are 2.26 ± 0.26 and 2.23 ± 0.21.
In the same order, the values of SWASAQVQILCHTYWEHWTSQGQV [RTP4] are 2.8 ± 0.74 and 2.77 ± 0.75.
SYSAGDSGDAAAQPAFTGIKGKEG [EPB41L3]: the protein stability index was found to be 5.37 ± 0.15 under setting [1] and 5.3 ± 0.25 under setting [2].
With TAFAPKMIVDLLSEKKTISFQGCM [OR4A15], the protein stability index stood at 2.08 ± 0.13 under setting [1] and 2.26 ± 0.42 under setting [2].
In the same order, the values of TAGLKIFEPPAPGEGNSSQNSRNK [TNFSF13B] are 5.2 ± 0.22 and 5.24 ± 0.15.
On to TAILIECGADVNVRDSDDNSPLHI [FEM1C], for which the protein stability index is, setting by setting: under setting [1], 3.43 ± 0.34; under setting [2], 3.5 ± 0.3.
The sequence TASTKNCMVGYDMGATRCDFTLSK [CPXM2] displayed a protein stability index under setting [1] of 2.64 ± 0.4 and a protein stability index under setting [2] of 3.03 ± 0.51.
The matching figures for TCFDQRKRANAAFLIGAYAVIYLK [CDC14A]: 2.05 ± 0.31 and 2.13 ± 0.41.
For the sequence TEAANAARHVAPEIRELLTQFET [PWWP2B], the protein stability index by setting is: under setting [3], 3.49 ± 0.21; under setting [4], 3.88 ± 0.29.
Consider TEDTPKVNADIEKVNQNQAKRCTV [NSDHL], for which the protein stability index was determined as 5.42 ± 0.23 under setting [1] and 5.38 ± 0.21 under setting [2].
As for TEEELRRIQTQKEQAKENENGELQ [ZC2HC1C], the protein stability index is, setting by setting: under setting [1], 5.68 ± 0.23; under setting [2], 5.54 ± 0.14.
The matching figures for TETHVRDWVMWAVNEFSLKGVDFQ [ETS1]: 2.81 ± 0.94 and 2.72 ± 0.78.
For the sequence TEVLRNMGFAAKAMKSVHENMDLN [CHMP4C], the protein stability index amounted to 3.3 ± 0.34 under setting [1] and 3.46 ± 0.16 under setting [2].
The matching figures for TFDVDEYEHYERVENGDFNWIVPG [CDC14A]: 4.11 ± 0.26 and 4.17 ± 0.17.
The sequence TFILKNPPENSDSGTGKKEKEKKN [EIF5] gave a protein stability index under setting [1] of 4.94 ± 0.3 and a protein stability index under setting [2] of 5.137 ± 0.05.
As to TFPDLESEFQAALSRKVAKLVHFL [MAGEA6], the protein stability index worked out at 2.27 ± 0.2 under setting [1] and 2.22 ± 0.21 under setting [2].
The matching figures for TFPKALTNGSFSPSGNNGSVNWRT [DLC1]: 3.14 ± 0.14 and 3.19 ± 0.23.
In the same order, the values of TGGQTVVNPWIIIGGVATVVCQPN [SEPHS2] are 2.84 ± 0.76 and 2.62 ± 0.7.
On to TIDKQREEMAKSSRASAARVGQLQ [LRRC45], for which the protein stability index reads like this: under setting [1], 4.67 ± 0.14; under setting [2], 4.73 ± 0.14.
The matching figures for TITMAHLLAAREDLSKIIRTSSGT [FAM98B]: 2.31 ± 0.33 and 2.38 ± 0.4.
The matching figures for TIYCSLQLQALNRRFQQTQYLALP [DLX1]: 2.53 ± 0.48 and 2.42 ± 0.62.
In the same order, the values of TKKKQWCYNCEEEAMYHCCWNTSY [ZMYND11] are 2.6 ± 0.25 and 2.45 ± 0.4.
For the sequence TKLSAQSAQYSQQLQAARNEYLLN [FCHSD1], the protein stability index is, setting by setting: under setting [1], 3.19 ± 0.055; under setting [2], 3.33 ± 0.18.
In the same order, the values of TKMWHPNIYETGDVCISILHPPVD [CDC34] are 2.23 ± 0.2 and 2.12 ± 0.37.
In the same order, the values of TKPTQGASSASEPQGLFVEALSVP [CLPTM1] are 4.13 ± 0.097 and 4.29 ± 0.19.
In the same order, the values of TLMGKLKLKNTVTIQQEKLLAEKE [SASS6] are 3.406 ± 0.012 and 3.39 ± 0.58.
Regarding TLRRIQASMAPAAALPPVPSPPAA [SERTAD1], the protein stability index reads like this: under setting [1], 3.6 ± 0.23; under setting [2], 3.8 ± 0.31.
In the same order, the values of TLRTLTGQDTMLKAMFSGRVEVLT [KCTD13] are 2.44 ± 0.22 and 2.37 ± 0.29.
The matching figures for TLVMFQSLGERMNTFVRYLLKRIK [KCNK9]: 3 ± 0.54 and 2.73 ± 0.23.
For the sequence TMEDTLMTVKQYEAARLEYDAYRT [ARFIP2], the protein stability index is, setting by setting: under setting [1], 3.88 ± 0.27; under setting [2], 3.74 ± 0.3.
Consider TMLATRNFSAAKSLLNKKADGVKP [CAMK2B], for which the protein stability index runs as follows: under setting [1], 3.73 ± 0.34; under setting [2], 4.02 ± 0.32.
The matching figures for TMTNYDEAAMAIASLNGYRLGERV [ELAVL3]: 3 ± 0.35 and 3.17 ± 0.31.
In the same order, the values of TNDSLSLKPSWFDFGFAILGFAYA [MIA2] are 2.99 ± 0.53 and 2.49 ± 0.4.
In the same order, the values of TNYNNVCRKFPRDMKAMSPENQEY [RHOBTB2] are 3.8 ± 0.12 and 4.13 ± 0.12.
Consider TPEDSDPDHFDTAILFTRQDLCGV [ADAMTS4], for which the protein stability index under setting [1] worked out at 4.15 ± 0.092 and the protein stability index under setting [2] is 4.18 ± 0.17.
For the sequence TPHVYWAQRHRELYLRVELSDVQN [HACD3], the protein stability index is 2.28 ± 0.14 under setting [1] and 2.17 ± 0.24 under setting [2].
TPKDKRVSNTPLRTVDGSPMMKAA [PALM]: the protein stability index reads like this: under setting [1], 4.33 ± 0.3; under setting [2], 4.39 ± 0.24.
In the same order, the values of TPLDAFRMTSAAHYYPKLMSIMGN [GFOD1] are 2.12 ± 0.33 and 2.06 ± 0.093.
In the same order, the values of TPPHLTSAMAENILAAACESETRK [NOL4L] are 4.16 ± 0.47 and 4.35 ± 0.2.
The matching figures for TQDPSQPNSTKNQSLPKASPVTTS [LCOR]: 5.21 ± 0.19 and 5.12 ± 0.23.
Turning to TQTSEECNGILTEKMEEEEQTCDP [ZNF396], the protein stability index reads like this: under setting [1], 5.5 ± 0.22; under setting [2], 5.71 ± 0.17.
For the sequence TRNVQSVSIIDTELKVKDSQPIDL [TRIP13], the protein stability index under setting [1] is 4.32 ± 0.16 and the protein stability index under setting [2] was 4.55 ± 0.19.
